1 substance from patent publication US20090317825 can be followed below.

The target in the series is human GST-E1 (Boston Biochem) (UniProt P22314).
Sequence of human GST-E1 (Boston Biochem) (P22314 whole entry): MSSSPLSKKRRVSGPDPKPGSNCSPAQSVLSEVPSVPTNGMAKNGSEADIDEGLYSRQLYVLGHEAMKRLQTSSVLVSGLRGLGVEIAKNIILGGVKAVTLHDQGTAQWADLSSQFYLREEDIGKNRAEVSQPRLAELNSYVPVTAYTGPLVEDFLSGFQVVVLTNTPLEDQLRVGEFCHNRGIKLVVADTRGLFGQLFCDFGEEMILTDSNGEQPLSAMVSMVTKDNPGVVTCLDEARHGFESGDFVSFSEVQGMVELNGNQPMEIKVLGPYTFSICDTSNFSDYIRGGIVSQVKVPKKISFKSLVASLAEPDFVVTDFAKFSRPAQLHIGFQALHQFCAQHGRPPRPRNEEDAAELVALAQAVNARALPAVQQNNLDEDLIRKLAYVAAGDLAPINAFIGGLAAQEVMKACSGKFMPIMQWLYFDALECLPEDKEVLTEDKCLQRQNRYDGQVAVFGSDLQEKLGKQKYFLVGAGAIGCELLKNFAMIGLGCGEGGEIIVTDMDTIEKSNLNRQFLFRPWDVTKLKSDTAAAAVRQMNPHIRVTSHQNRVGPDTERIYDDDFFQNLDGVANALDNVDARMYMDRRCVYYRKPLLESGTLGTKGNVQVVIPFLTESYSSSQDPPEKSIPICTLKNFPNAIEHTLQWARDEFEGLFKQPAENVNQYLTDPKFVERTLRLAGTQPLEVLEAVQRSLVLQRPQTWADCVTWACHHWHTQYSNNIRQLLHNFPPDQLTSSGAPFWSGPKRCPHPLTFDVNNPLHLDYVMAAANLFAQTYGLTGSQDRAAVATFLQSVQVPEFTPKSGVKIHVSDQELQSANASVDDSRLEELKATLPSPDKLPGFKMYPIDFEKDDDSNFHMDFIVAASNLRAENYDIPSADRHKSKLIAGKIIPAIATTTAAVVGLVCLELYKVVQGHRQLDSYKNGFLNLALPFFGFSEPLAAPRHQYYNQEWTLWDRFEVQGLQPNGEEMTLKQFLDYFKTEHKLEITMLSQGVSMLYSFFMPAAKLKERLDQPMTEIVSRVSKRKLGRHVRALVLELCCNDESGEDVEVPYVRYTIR

In the case of “His6-Parkin (full-length human Parkin fused to an N-terminal histidine tag, from E. coli, refolded)”, the “ubiquitination of Parkin in the absence of UbCH7 (biotin-ubiquitin Western blot, NeutrAvidin-HRP)” value is “some reaction product was seen in the absence of UbCH7 when Parkin was incubated with E1 and ubiquitin for 90 minutes”.
